From patent US20120121603A1 (THERACLONE SCIENCES, published 2012) come the findings set out here.

This assay has as its target T1, M2 protein expressed on the surface of PR8-infected MDCK cells (Influenza A virus A/Puerto Rico/8/1932 …, UniProt P06821 1-97).
T1 construct: whole, on cells
Put plainly: FMAT, crude supernatant on PR8-infected MDCK cells.

T1 sequence (P06821 whole entry): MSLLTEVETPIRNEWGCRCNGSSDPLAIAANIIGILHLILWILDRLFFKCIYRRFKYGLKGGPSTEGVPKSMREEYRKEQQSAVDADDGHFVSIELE

B1: 23K12 (antibody, V domains shown)
VH: EVQLVESGGGLVQPGGSLRISCAASGFTVSSNYMSWVRQAPGKGLEWVSVIYSGGSTYYADSVKGRFSFSRDNSKNTVFLQMNSLRAEDTAVYYCARCLSRMRGYGLDVWGQGTTVTVS
VL: DIQMTQSPSSLSASVGDRVTITCRTSQSISSYLNWYQQKPGKAPKLLIYAASSLQSGVPSRFSGSGSGTDFTLTISGLQPEDFATYYCQQSYSMPAFGQGTKLEIK
B1: the binding result is reported as “binds”.
